Results reported in patent publication US20100056445A1, “ADIPONECTIN FOR THE TREATMENT AND DIAGNOSIS OF ALBUMINURIA” (THOMAS JEFFERSON UNIVERSITY, priority 2006, published 2010).
Entries after “also recorded” stand apart in the source; their conditions may differ.

Legend:
AMPK = assay: Glomerular AMPK activity (p-AMPKα immunostain) in adiponectin KO mouse kidney; format: in vivo; conditions: adiponectin KO mice, adiponectin (gAd) treatment
Experimental: Immunohistochemistry: Immunocytochemistry was performed as described previously (30). Differentiated podocytes seeded on coverslips were serum-Starved overnight and globular adiponectin was added. After 24 hours of adiponectin introduction, cells were fixed in 3.7% paraformaldehyde. Incubation with primary antibody p-AMPKα at 1:50 dilution (Cell Signaling Technology) was performed in blocking solution at 4° C. overnight Cells were then incubated with secondary anti rabbit IgG conjugated to an immunofluorescent dye (Alexa 594, Invitrogen, Carisbad, Calif.) for 30 minutes at room temperature. Nuclear stain was performed with Hoechst 33342 (Invitrogen). Fluorescence pictures were obtained using confocal laser fluorescence microscope (LSM-510, Carl Zeiss, Jena, Germany). Immunostaining of paraffin-embedded mouse kidney was performed as described previously (26) with p-AMPKα (Thr172) rabbit monoclonal antibody (31). Quantitation of p-AMPKα positive cells was performed on 50 glomeruli from 4 mice in each group.
Immunohistochemistry: Immunocytochemistry was performed as described previously (30). […] Fluorescence pictures were obtained using confocal laser fluorescence microscope (LSM-510, Carl Zeiss, Jena, Germany). […] Quantitation of p-AMPKa positive cells was performed on 50 glomeruli from 4 mice in each group. […] Images were captured by confocal laser fluorescence microscope.

[1] = tested on: Adiponectin KO (Ad−/−) mice; assay: Podocyte foot process effacement by electron microscopy in adiponectin KO mice; format: in vivo, mouse; conditions: gAd treatment, EM
Experimental: Adiponectin administration and animal studies: The mice were treated with 25 μg of recombinant human globular domain adiponectin (gAd; PepROTech, Rocky Hill, N.J.) subcutaneously twice daily for 10 consecutive days. The control animals were given PBS alone. 24-hour urines from each mouse were collected twice: one week before the injections and on the last day of the injections. The urine albumin and creatinine were measured with a mouse Albuwell ELISA kit and a Creatinine Companion kit (Exocell, Philadelphia, Pa.) (25,26). The mice were sacrificed five hours after the final gAd injection under anesthesia. Portions of kidney cortex were fixed in buffered formalin and embedded in paraffin. […]
Interventional animal studies: The mice were treated with 25 μg of recombinant human globular domain adiponectin gAd (PepROTech, Rocky Hill, N.J.), administered 25 μg/mouse twice a day for 10 consecutive days or full-length adiponectin (fAd) was administered using an AAV vector (AAV2/8 CMV fAd virus 4×1011 GC/mouse for 10 days). […] The urine albumin and creatinine were measured with a mouse Albuwell ELISA kit and a Creatinine Companion kit (Exocell, Philadelphia, Pa.) (26, 25). As an index of oxidant stress timed urine collections were also analyzed for hydrogen peroxide by Amplex red assay (Invitrogen/Molecular Probes, Carlsbad, Calif.) following the manufacturer's protocol. […]

[2] = tested on: Adiponectin KO (Ad−/−) mice; assay: Urine albumin/creatinine ratio in treated adiponectin KO mice; format: in vivo, mouse; conditions: AdKO mice at 4 months of age; gAd 25 μg twice daily for 10 days (gAd or fAd)
Experimental: Adiponectin administration and animal studies: The mice were treated with 25 μg of recombinant human globular domain adiponectin (gAd; PepROTech, Rocky Hill, N.J.) subcutaneously twice daily for 10 consecutive days. The control animals were given PBS alone. 24-hour urines from each mouse were collected twice: one week before the injections and on the last day of the injections. The urine albumin and creatinine were measured with a mouse Albuwell ELISA kit and a Creatinine Companion kit (Exocell, Philadelphia, Pa.) (25,26). The mice were sacrificed five hours after the final gAd injection under anesthesia. Portions of kidney cortex were fixed in buffered formalin and embedded in paraffin. A portion of kidney cortical tissue was cut into 1 mm^3 pieces and fixed in 2.5% glutaraldehyde
Interventional animal studies: The mice were treated with 25 μg of recombinant human globular domain adiponectin gAd (PepROTech, Rocky Hill, N.J.), administered 25 μg/mouse twice a day for 10 consecutive days or full-length adiponectin (fAd) was administered using an AAV vector (AAV2/8 CMV fAd virus 4×1011 GC/mouse for 10 days). A separate group of Ad−/− mice were treated with 5-aminoimidazole-4-carboxamide-1-beta-D-ribonucleoside (AICAR) with a single i.p. dose of 300 mg/kg. The control animals were given PBS alone or control AAV. 24-hour urines from each mouse were collected before treatment and on the last day of the treatment period. The urine albumin and creatinine were measured with a mouse Albuwell ELISA kit and a Creatinine Companion kit (Exocell, Philadelphia, Pa.) (26, 25). As an index of oxidant stress timed urine collections were also analyzed for hydrogen peroxide by Amplex red assay (Invitrogen/Molecular Probes, Carlsbad, Calif.) following the manufacturer's protocol. Portions of liver, muscle and kidney was snap-frozen in liquid nitrogen for RNA isolation. An additional aliquot of normal kidney was frozen in OCT for immunofluorescent staining. […]

B1: adiponectin: 30 kDa adipocyte-secreted protein; in the first series of tests the recombinant globular domain was used, later gAd or fAd (protein, UniProt Q15848 19-244, looked up)
Adiponectin: ETTTQGPGVLLPLPKGACTGWMAGIPGHPGHNGAPGRDGRDGTPGEKGEKGDPGLIGPKGDIGETGVPGAEGPRGFPGIQGRKGEPGEGAYVYRSAFSVGLETYVTIPNMPIRFTKIFYNQQNHYDGSTGKFHCNIPGLYYFAYHITVYMKDVKVSLFKKDKAMLFTYDQYQENNVDQASGSVLLHLEVGDQVWLQVYGEGERNGLYADNDNDSTFTGFLLYHDTN
With B1 the “AMPK activity in glomerular podocytes (p-AMPKα positive cells per glomerulus)” value (AMPK) was “improved; also recorded: increased”, the “Podocyte foot process fusion / effacement” value [1] was “improved podocyte foot process effacement; also recorded: restored podocyte foot processes” and the “Urine albumin/creatinine ratio (albuminuria)” value [2] was “normalized albuminuria levels; also recorded: restores normal albuminuria”.
